This series has as its target cGAS (human, UniProt Q8N884 1-522). In words: EMSA; 5-10 uM cGAS, 50 fmol DNA, 1 mM Mg2+; 10 mM Hepes-NaOH pH 7.5, 100 mM NaCl, 1 mM DTT, 1 mM MgCl2, 20 ug/mL BSA, 25-50 fmol DNA, 25 C 30 min; native PAGE 5% or 6% (Methods), 0.5x TBE. The following applies: protein: recombinant; tags: His (pET28a-His-hcGAS); label: 32P. In general terms: In EMSA bound probe runs differently from free probe, usually more slowly.

Sequence of cGAS (Q8N884 whole entry): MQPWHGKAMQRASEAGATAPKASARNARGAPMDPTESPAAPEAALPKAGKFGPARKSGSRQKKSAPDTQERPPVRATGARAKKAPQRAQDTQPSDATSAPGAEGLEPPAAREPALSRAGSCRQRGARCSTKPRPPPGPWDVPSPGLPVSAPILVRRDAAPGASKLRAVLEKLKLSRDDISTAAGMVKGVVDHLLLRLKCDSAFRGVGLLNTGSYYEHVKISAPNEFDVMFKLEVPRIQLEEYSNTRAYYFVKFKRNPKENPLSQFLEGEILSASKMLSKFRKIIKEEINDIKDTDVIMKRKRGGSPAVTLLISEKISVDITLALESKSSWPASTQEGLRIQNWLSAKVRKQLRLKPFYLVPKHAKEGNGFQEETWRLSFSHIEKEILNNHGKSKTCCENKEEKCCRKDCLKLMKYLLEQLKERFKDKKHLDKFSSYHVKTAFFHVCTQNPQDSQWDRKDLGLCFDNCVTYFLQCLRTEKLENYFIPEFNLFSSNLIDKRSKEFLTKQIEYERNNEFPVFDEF

B1: ISRE 45-bp dsDNA (dsDNA)
DNA 1: TACAGATCTACTAGTGATCTATGACTGATCTGTACATGATCTACACCAAAGAGCATTGTAGATCATGTACAGATCAGTCATAGATCACTAGTAGATCTGTA
DNA 2: TACAGATCTACTAGTGATCTATGACTGATCTGTACATGATCTACAATGCTCTTTGGTGTAGATCATGTACAGATCAGTCATAGATCACTAGTAGATCTGTA
As to B1, the binding result is on record as “binds”.

Source of the values: paper doi:10.1101/2020.07.27.222380, “NBS1-CtIP–Mediated DNA End Resection Regulates cGAS Binding to Micronuclei”.
